The source of these data is article doi:10.1101/2022.01.14.476343.

For the assay, the target named is Tpp49Aa1 pesticidal protein from Lysinibacillus sphaericus (Lysinibacillus sphaericus). Kind of assay: crystal structure.

“Tpp49Aa1 pesticidal protein from Lysinibacillus sphaericus (natural protein)”: the stoichiometry N (in general, the number of molecules, sites or subunits per partner or assembly) is 2.
